# In patent publication US20050191302:
# B1: recombinant human caspase-3 (Calbiochem) (protein)
# chain: SGISLDNSYKMDYPEMGLCIIINNKNFHKSTGMTSRSGTDVDAANLRETFRNLKYEVRNKNDLTREEIVELMRDVSKEDHSKRSSFVCVLLSHGEEGIIFGTNGPVDLKKITNFFRGDRCRSLTGKPKLFIIQACRGTELDCGIETDSGVDDDMACHKIPVEADFLYAYSTAPGYYSWRNSKDGSWFIQSLCAMLKQYADKLEFMHILTRVNRKVATEFESFSFDATFHAKKQIPCIVSMLTKELYFYH
# Target: recombinant TIMP-1 (Biogenesis, Poole, UK)
protein,measurement,value
B1,caspase-3 activity (colorimetric substrate assay; recombinant caspase-3 incubated with TIMP-1 at 285-2850 ng/ml for 1 hour before the substrate was added),TIMP-1 did not reduce caspase-3 activity directly (data not shown)
